# Reference: publication PMC8614642
# Target: recombinant K38 depolymerase region (residues 147-742) of the tailspike gp46 of Acinetobacter pittii phage vB_Api_3043-K38 (Acinetobacter pittii phage vB_Api_3043-K38)
# Experiment: SEC; analytical size exclusion on Superose 6 10/300 GL, 10 mM PBS pH 7.5, 4 °C, 0.75 mL/min, mass estimated from calibration standards
substance,measurement,value
recombinant K38 depolymerase region (residues 147-742) of the tailspike gp46 of Acinetobacter pittii phage vB_Api_3043-K38 (domain or fragment),stoichiometry N,3
